Results published in the supplement of paper PMC10567573.
± gives the standard deviation.

Experiment: protein stability index of a GFP-peptide fusion (GPS, HEK-293T) (PSI 1-6); higher = more stable
[1] = treatment: DMSO, c terminus: a fixed tail appended
[2] = treatment: MLN4924 1 uM, 8 h, c terminus: a fixed tail appended
[3] = treatment: DMSO, c terminus: native
[4] = treatment: MLN4924 1 uM, 8 h, c terminus: native
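Note: 24-mer peptide tiles fused after GFP, lentivirally expressed, FACS-sorted into six equal bins by GFP/DsRed ratio, decoded by Illumina sequencing, PSI is the read-weighted mean bin number.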

SCEACKAFFKRTIQGNIEYSCPAT [ESRRG]
protein stability index [1]: 2.46 ± 0.25
protein stability index [2]: 2.64 ± 0.37

DYEAGTLSFYNVTDRSHIYTFTDT [TRIM39]
protein stability index [1]: 2.58 ± 0.38
protein stability index [2]: 2.69 ± 0.28

CFKSVAKTPYDTSRRQEKSAGDAD [ELOA2]
protein stability index [1]: 4.96 ± 0.3
protein stability index [2]: 5 ± 0.46

TNEKALEAVFGKYGRIVEVLLMKD [RBMX]
protein stability index [1]: 1.97 ± 0.46
protein stability index [2]: 2.15 ± 0.29

AKMGATKEEREDTPIQLQELLALE [TCAP]
protein stability index [1]: 5.28 ± 0.24
protein stability index [2]: 5.15 ± 0.27

EKLIQERSQQQEPLLCPSYQSYFK [KRT34]
protein stability index [1]: 3.36 ± 0.23
protein stability index [2]: 3.41 ± 0.32

ASASKFPSSGPVTPQPTALTFAKS [AUP1]
protein stability index [1]: 4.33 ± 0.17
protein stability index [2]: 4.36 ± 0.38

PRHPIRALVGDEVELPCRISPGKN [MOG]
protein stability index [1]: 4.62 ± 0.17
protein stability index [2]: 4.72 ± 0.21

GELQESGLALCPEVQDLLEGCELP [SMG5]
protein stability index [1]: 5.17 ± 0.11
protein stability index [2]: 5.08 ± 0.22

ESPFSRKLDLWSFLDIPRSRLVKY [NET1]
protein stability index [1]: 2.06 ± 0.14
protein stability index [2]: 2.15 ± 0.21

HSVFEFLAFKNDIQFWNSRQSLEG [CLPTM1]
protein stability index [1]: 2.03 ± 0.17
protein stability index [2]: 2.13 ± 0.28

IKAWMDRYEEANNNQYSEGVQREA [KMT2E]
protein stability index [1]: 3.77 ± 0.14
protein stability index [2]: 4.05 ± 0.28

EHIKSLLIKNNSLPRKRQSLRSSS [INTS3]
protein stability index [1]: 3.29 ± 0.17
protein stability index [2]: 3.38 ± 0.25

ELMAELEELEQEELNKKMTNIRLP [CHMP4C]
protein stability index [1]: 3.55 ± 0.3
protein stability index [2]: 3.65 ± 0.22

LANNQCMATESVDHELGRCTDSVV [EHMT1]
protein stability index [1]: 4.74 ± 0.093
protein stability index [2]: 4.71 ± 0.074

SSQPQDNSQVHRETEDVDYGETDF [TMEM40]
protein stability index [1]: 5.58 ± 0.26
protein stability index [2]: 5.64 ± 0.3

YRTWNVVVHDWLYSYVYQDGLRLL [SOAT2]
protein stability index [1]: 3.02 ± 0.41
protein stability index [2]: 2.82 ± 0.84

SFLFLGCSHSFLLAVMGYDRYIAI [OR10K2]
protein stability index [1]: 3.14 ± 0.21
protein stability index [2]: 2.83 ± 0.59

DKKTCTKIDYCASSNHGCQHECVN [MATN2]
protein stability index [1]: 4.11 ± 0.22
protein stability index [2]: 4.23 ± 0.13

KSNGRGGSQAGGSGSAGQYGSDQQ [MYOZ1]
protein stability index [1]: 5.49 ± 0.23
protein stability index [2]: 5.4 ± 0.14

NKVAGHPLAQNERCLHMFLQDEII [SNX3]
protein stability index [1]: 2.64 ± 0.2
protein stability index [2]: 2.7 ± 0.46

LEVEREAEKKREAKQRAKEAQERE [LRRC59]
protein stability index [1]: 5.45 ± 0.42
protein stability index [2]: 5.63 ± 0.19

AALIYFAISITAIAKYSDGASKAA [CMTM3]
protein stability index [1]: 3.49 ± 0.37
protein stability index [2]: 3.43 ± 0.62

QRLLFSGASDNSIIMWDIGGRKGR [WDFY1]
protein stability index [1]: 3.16 ± 0.55
protein stability index [2]: 3.39 ± 0.46

SETDFETEPETAPTTEPETEPEDD [GNAS]
protein stability index [1]: 5.69 ± 0.19
protein stability index [2]: 5.581 ± 0.055

KTCSRVDHCAQQDHGCEQLCLNTE [MATN2]
protein stability index [1]: 4.77 ± 0.19
protein stability index [2]: 4.77 ± 0.21

AVATASRLGPYVLLEPEEGGRAYQ [TRIB3]
protein stability index [1]: 3.79 ± 0.37
protein stability index [2]: 3.71 ± 0.32

MFLAMLAVVSCASIGSGEPPTGN [CDK11A]
protein stability index [3]: 2.67 ± 0.36
protein stability index [4]: 2.46 ± 0.39

FSNTSELAKDFIRRLLVKDPKRRM [DAPK3]
protein stability index [1]: 2.36 ± 0.19
protein stability index [2]: 2.16 ± 0.44

AIQQMGGQWLGGRQIRTNWATRKP [TIA1]
protein stability index [1]: 2.8 ± 0.29
protein stability index [2]: 3.21 ± 0.44

ETLEGREKAFIAHFQDNLHSVNRD [MED27]
protein stability index [1]: 4.32 ± 0.22
protein stability index [2]: 4.26 ± 0.2

RLPCSFVTLALLGSYTVQSELGDY [EPB41L3]
protein stability index [1]: 2.91 ± 0.56
protein stability index [2]: 2.48 ± 0.35

EPLEPEVKYVGNMHGNEALGRELM [CPN1]
protein stability index [1]: 4.63 ± 0.088
protein stability index [2]: 4.82 ± 0.18

HRTRLQDLRVLVSNASEDTRRLRL [SCARA5]
protein stability index [1]: 3.29 ± 0.11
protein stability index [2]: 3.57 ± 0.15

LDSEIKKNSDGMEAAGVQIQMVNE [CD207]
protein stability index [1]: 5.41 ± 0.59
protein stability index [2]: 5.22 ± 0.35

YTGPSSSGRFAGREWYYGNVTRHQ [NCK2]
protein stability index [1]: 2.35 ± 0.31
protein stability index [2]: 2.65 ± 0.58

SSLFDLSVLKLHHSLQQSEPDLRH [SERTAD1]
protein stability index [1]: 3.23 ± 0.21
protein stability index [2]: 3.29 ± 0.3

PALDIFGDLFESTPEVAAAPKPDA [SNAP91]
protein stability index [1]: 4.57 ± 0.21
protein stability index [2]: 4.67 ± 0.27

DNLGYRTGYPYRYPALREKSKKYS [ADD1]
protein stability index [1]: 3.56 ± 0.13
protein stability index [2]: 3.69 ± 0.1

PLRERARKLSQGILIIRFEMPYNI [YJU2B]
protein stability index [1]: 2.9 ± 0.7
protein stability index [2]: 2.62 ± 0.39

SLENSLREVEARYALQMEQLNGIL [KRT18]
protein stability index [1]: 2.15 ± 0.23
protein stability index [2]: 2.52 ± 0.26

YKCAECGKSFCHSTHLTVHRRIHT [ZNF8]
protein stability index [1]: 3.9 ± 0.18
protein stability index [2]: 4.42 ± 0.16

SDMDRNKTILGNAHDNSEELERAR [ANKRD44]
protein stability index [1]: 5.58 ± 0.16
protein stability index [2]: 5.57 ± 0.3

PQQAPQDDGSQDPEVLDRESRDRP [PWWP2B]
protein stability index [1]: 5.63 ± 0.29
protein stability index [2]: 5.47 ± 0.14

GSSFSGRVFRVTFLMLAVSLTVPL [APMAP]
protein stability index [1]: 3.06 ± 0.3
protein stability index [2]: 3.05 ± 0.35

AAVPDEIPPLEGDEDASRMEEVD [HSP90AB1]
protein stability index [3]: 5.62 ± 0.27
protein stability index [4]: 5.68 ± 0.21

IPGKVIDEIYRVLRYVNSTRAPQR [FBXO28]
protein stability index [1]: 2.2 ± 0.21
protein stability index [2]: 2.41 ± 0.28

MGQKLSGSLKSVEVREPALRPAKR [SPSB4]
protein stability index [1]: 4.37 ± 0.31
protein stability index [2]: 4.62 ± 0.11

AKAADSPTRNDLESGLGHFSLRVH
protein stability index [1]: 3.19 ± 0.38
protein stability index [2]: 3.42 ± 0.48

FEKLLQLTSQNIEIKLVSDVTADS [PLD5]
protein stability index [1]: 2.69 ± 0.59
protein stability index [2]: 2.72 ± 0.37

FIVGMVGNATLLRIIYQNKCMRNG [EDNRA]
protein stability index [1]: 2.98 ± 0.15
protein stability index [2]: 2.51 ± 0.68

RELEEYRREVERKQKGSEENLDEA [ADD1]
protein stability index [1]: 5.57 ± 0.24
protein stability index [2]: 5.61 ± 0.17

FMQTGYNKLCDWWSLGVIMYEMLI [STK38L]
protein stability index [1]: 2.77 ± 0.82
protein stability index [2]: 2.47 ± 0.64

LLEEEEKQWGPLEREPVRGQCLDS [RTN2]
protein stability index [1]: 5.1 ± 0.3
protein stability index [2]: 5.26 ± 0.077

SGLSFITFICYVASSASAFLTAPL [CMTM3]
protein stability index [1]: 3.15 ± 0.49
protein stability index [2]: 2.96 ± 0.3

VCVRAHESVVKSEDFSLPAYMDRR [COX4I1]
protein stability index [1]: 3.1 ± 0.43
protein stability index [2]: 3.14 ± 0.24

DQWNILQTPILEGRSGPGCAVLDD [KLHL14]
protein stability index [1]: 4.37 ± 0.34
protein stability index [2]: 4.16 ± 0.26

ETVPWFPKKISDLDHCANRVLMYG [TPH1]
protein stability index [1]: 2.38 ± 0.24
protein stability index [2]: 2.46 ± 0.26

RWNPWSTEVPYATFTEHPMKYTSE [TPRG1]
protein stability index [1]: 3 ± 0.6
protein stability index [2]: 2.74 ± 0.24

VTPEAKNLINQMLTINPAKRITAH [CAMK2B]
protein stability index [1]: 2.8 ± 0.14
protein stability index [2]: 2.95 ± 0.3

HMVKISGGPHISYPPLHEWVLREG [MAGEA3]
protein stability index [1]: 2.29 ± 0.34
protein stability index [2]: 2.43 ± 0.35

ISLFFLIIYMGSFMLMLLVLGIQV [CDS1]
protein stability index [1]: 3.18 ± 0.23
protein stability index [2]: 3.33 ± 0.11

LLRDPADASEAHESSSRGEAGAPG [CHGB]
protein stability index [1]: 5.45 ± 0.28
protein stability index [2]: 5.34 ± 0.24

WTLEDEIHSPAHPEIEKADDHLQQ [ZNF649]
protein stability index [1]: 5.2 ± 0.34
protein stability index [2]: 5.26 ± 0.3

CSFCKRAFPSGHLLDAHILEWHDS [ZNF511]
protein stability index [1]: 5.19 ± 0.093
protein stability index [2]: 5.12 ± 0.24

YGPQVNNISHTKEKKKGKAKKKRL [WASL]
protein stability index [1]: 4.48 ± 0.34
protein stability index [2]: 4.68 ± 0.29

EKEIEEATKKLGFKHPVIGVHVRR [FUT8]
protein stability index [1]: 3.99 ± 0.29
protein stability index [2]: 3.9 ± 0.51

AEDAVYGRDGYDYDGYRLRVEFPR [SRSF1]
protein stability index [1]: 3.37 ± 0.2
protein stability index [2]: 3.44 ± 0.37

ILKQLIADVTLDPETAHPNLVLSE [TRIM39]
protein stability index [1]: 2.67 ± 0.085
protein stability index [2]: 2.81 ± 0.29

TQGCHPAWEPRSESQASRKEEGLP [ZNF8]
protein stability index [1]: 4.89 ± 0.25
protein stability index [2]: 4.96 ± 0.18

ESSILGTDIDLQTIDNDIVSMEIF [M1AP]
protein stability index [1]: 3.86 ± 0.34
protein stability index [2]: 3.74 ± 0.35

IPQQQGMRPPMPPHGQYGGHHQGM [ZNF207]
protein stability index [1]: 3.71 ± 0.24
protein stability index [2]: 3.88 ± 0.11

IHSREKRGDSVKVENPSTASHSLS [ZNF649]
protein stability index [1]: 4.97 ± 0.26
protein stability index [2]: 5.22 ± 0.15

DYGVDPSQFSGTLMRTCERLVKEG [PPTC7]
protein stability index [1]: 3.72 ± 0.42
protein stability index [2]: 3.79 ± 0.35

LGSDDINVVTCAAGILSNLTCNNY [CTNNB1]
protein stability index [1]: 2.27 ± 0.22
protein stability index [2]: 2.37 ± 0.22

VSERSFDNVRSLKVESGAWIGYEH [CRYBA1]
protein stability index [1]: 2.91 ± 0.47
protein stability index [2]: 3.02 ± 0.33

VGKSLTILGRTFFIYDCDPFTRRY [EFHC1]
protein stability index [1]: 2.47 ± 0.54
protein stability index [2]: 2.7 ± 0.54

PQVLSQEFTELLKVMIHPDPERRP [WEE1]
protein stability index [1]: 3.45 ± 0.17
protein stability index [2]: 3.43 ± 0.16

ERTKSRLVNTSENLSKSRKILRSM [VTI1B]
protein stability index [1]: 3.79 ± 0.21
protein stability index [2]: 3.87 ± 0.19

LEVMEEEELANLRASQREYEELRN [RSPH3]
protein stability index [1]: 5.22 ± 0.43
protein stability index [2]: 5.09 ± 0.18

GSPGMIYSTRYGSPKRQLQFYRNL [KCNAB2]
protein stability index [1]: 2.44 ± 0.55
protein stability index [2]: 3.1 ± 0.38

PSDKMKWCLRVNPKGLDDESKDYL [SPOPL]
protein stability index [1]: 3.22 ± 0.34
protein stability index [2]: 3.81 ± 0.47

SDLGLLRLCTWLLALSPDLSLSNA [FANCE]
protein stability index [1]: 3.08 ± 0.33
protein stability index [2]: 3.17 ± 0.47

VSIKEAAGSSNLPAPERTMAGLSK [VENTX]
protein stability index [1]: 4.28 ± 0.3
protein stability index [2]: 4.33 ± 0.19

RYHNSHPLRERARKLSQGILIIRF [YJU2B]
protein stability index [1]: 3.08 ± 0.35
protein stability index [2]: 2.67 ± 0.45

DKVLGTFEFDETSFWNSSHPRGWN [KLHDC2]
protein stability index [1]: 2.93 ± 0.45
protein stability index [2]: 3.23 ± 0.61

SFALYLAGFCMFVLSLVKKHYRLQ [CDS1]
protein stability index [1]: 2.25 ± 0.36
protein stability index [2]: 2.04 ± 0.44

EEFIEEEDQEEEESTEGKEEGHQ [TRIM63]
protein stability index [3]: 5.56 ± 0.41
protein stability index [4]: 5.71 ± 0.27

NQPSGLIRTYLGRSPLVSGDESSL [RHOBTB3]
protein stability index [1]: 3.85 ± 0.25
protein stability index [2]: 3.84 ± 0.3
